The values below come from patent US12644128B2, “Method for producing HSL protein having catalytic activity for 2-oxoglutaric acid-dependently oxidizing 4-HPPD inhibitor” (National Agriculture and Food Research Organization, priority 2017, dated 2026).

Entries after “also recorded” stand apart in the source; their conditions may differ.

Experiment [1] is described as follows: 4-HPPD inhibitor decomposition activity by HPLC, substrate sulcotrione. Type of experiment: biochemical. The note with it: cell-free synthesized protein; FeCl2, ascorbic acid, 2-oxoglutarate; 30° C. for 3 hours; HPLC. The source says: (§1) Then, the decomposition reaction of a 4-HPPD inhibitor was examined in the presence of divalent iron ions, 2-oxoglutarate, and molecular oxygen in a test tube by a method described later using the HIS1 protein prepared by this cell-free protein synthesis system.
(§2) Here, in commercially-available wheat germ extracts, dithiothreitol (DTT) is used as a reducing agent and a protein synthesizing reaction liquid also contains DTT. It was confirmed in advance by liquid chromatography that under the coexistence of divalent iron ions and ascorbic acid, which is a stabilizer for the divalent iron ions, DTT generated radical compounds and secondarily affected the enzyme reaction of HIS1 proteins. For this reason, in the present Example, an unreported protein synthesizing reaction system using Tris (2-carboxyethyl) phosphine (TCEP) as a reducing agent instead of DTT was newly constructed, with which the synthesis of HIS1 proteins and the like was conducted to examine the 4-HPPD inhibitor decomposition activity of these. The decomposition activity was analyzed on the reaction liquid of the protein and the 4-HPPD inhibitor using a high-performance liquid chromatography (mobile phase; 0.5% acetic acid water:acetonitrile=65:35, flow rate; 1 mL/min, feeding; isocratic, column; CAPCELL PAK ADME S5). […]
(§3) Cell-free protein synthesis was conducted without adding [^14C]-Leucine Leucine under the same conditions as those in the estimation of the synthesized amount to estimate the protein concentration of this translation reaction liquid from the above-described estimation. […] The amounts of the solution before and after the buffer exchange were measured and the estimated protein concentration was corrected. […]
(§4) Note that the 5-point scale of the decomposition activity in each of FIGS. 12 to 17 is based on a relative value of the degree of decrease in a substrate-derived peak area detected by HPLC where the degree of decrease in the HIS1 protein was designated by 5. […]

Experiment [2] in a line: 4-HPPD inhibitor decomposition activity by HPLC, substrate mesotrione. Type of experiment: biochemical. As to conditions: cell-free synthesized protein, not shown in the figures. The procedure: (§5) Then, the amounts of the synthesized proteins obtained in Examples 1 to 4 as described above were estimated as described below, followed by the analysis on the 4-HPPD inhibitor decomposition activities. Cell-free protein synthesis was conducted without adding [^14C]-Leucine Leucine under the same conditions as those in the estimation of the synthesized amount to estimate the protein concentration of this translation reaction liquid from the above-described estimation. Then, 100 μl of the translation reaction liquid was subjected to buffer exchange to a basic translation buffer (30 mM HEPES-KOH (pH=7.8), 100 mM KOAc) by using the illustra MicroSpin G-25 column (manufactured by GE Healthcare). The amounts of the solution before and after the buffer exchange were measured and the estimated protein concentration was corrected. […] Elution was conducted at a flow speed of 1 mL/min and a column temperature of 40° C. under solvent conditions of acetonitrile:water (1% acetic acid)=55:45 or 50:50 (BBC-OH), acetonitrile:water (1% acetic acid)=45:55 (Sulcotrione), acetonitrile:water (1% acetic acid)=45:55 (Mesotrione), acetonitrile:water (1% acetic acid)=55:45 or 50:50 (tefryltrone), and acetonitrile:water (1% acetic acid)=55:45 or 50:50 (Tembotrione), respectively, and the compound was detected at an ultraviolet wavelength of 286 nm.

Experiment [3] concerns benzobicyclon-susceptible cultivar "Yamadawara". The experiment in a line: Resistance to BBC of rice expressing OsHSL1 or its F140H mutant. Type of experiment: in vivo. The note with it: T1 seeds, MS medium containing 0.25 μM BBC, 30° C., bright place, 8 days. The protocol:
Next, the efficacy of the F140H mutation was confirmed using rice. Specifically, first, an mHSL1 gene obtained by modifying phenylalanine at position 140 in a rice HSL1 cDNA gene to histidine was prepared. Subsequently, the mutated gene or an HSL1 gene in which the mutation was not introduced was linked to downstream of the 35S promoter and was cloned together with a hygromycin-resistance gene expression cassette in the binary vector. Then, these vectors were each introduced into a benzobicyclon-susceptible cultivar “Yamadawara” by an agrobacterium method and recombinant rice was grown.
The recombinant rice (T1) seeds thus produced and the seeds of the original cultivar “Yamadawara” were tested and seeded on an MS medium containing 0.25 μM BBC in a sterile manner and grown at 30° C. in a bright place for 8 days.

Experiment [4] can be described thus: 4-HPPD inhibitor decomposition activity by HPLC, substrate BBC-OH. The class given is biochemical. As to conditions: cell-free synthesized protein; FeCl2, ascorbic acid, 2-oxoglutarate; 30° C. for 3 hours; HPLC.
Source text: as §1
Here, in commercially-available wheat germ extracts, dithiothreitol (DTT) is used as a reducing agent and a protein synthesizing reaction liquid also contains DTT. It was confirmed in advance by liquid chromatography that under the coexistence of divalent iron ions and ascorbic acid, which is a stabilizer for the divalent iron ions, DTT generated radical compounds and secondarily affected the enzyme reaction of HIS1 proteins. For this reason, in the present Example, an unreported protein synthesizing reaction system using Tris (2-carboxyethyl) phosphine (TCEP) as a reducing agent instead of DTT was newly constructed, with which the synthesis of HIS1 proteins and the like was conducted to examine the 4-HPPD inhibitor decomposition activity of these. The decomposition activity was analyzed on the reaction liquid of the protein and the 4-HPPD inhibitor using a high-performance liquid chromatography (mobile phase; 0.5% acetic acid water:acetonitrile=65:35, flow rate; 1 mL/min, feeding; isocratic, column; CAPCELL PAK ADME S5).
Then, the amounts of the synthesized proteins obtained in Examples 1 to 4 as described above were estimated as described below, followed by the analysis on the 4-HPPD inhibitor decomposition activities.
Cell-free protein synthesis was conducted without adding [^14C]-Leucine Leucine under the same conditions as those in the estimation of the synthesized amount to estimate the protein concentration of this translation reaction liquid from the above-described estimation. Then, 100 μl of the translation reaction liquid was subjected to buffer exchange to a basic translation buffer (30 mM HEPES-KOH (pH=7.8), 100 mM KOAc) by using the illustra MicroSpin G-25 column (manufactured by GE Healthcare). The amounts of the solution before and after the buffer exchange were measured and the estimated protein concentration was corrected.
An enzyme reaction liquid was prepared by mixing 250 mM of HEPES-KOH (pH 7.0) with a mixture liquid, which contained 0.25 mM of FeCl2, 1.5 mM of ascorbic acid, 1.5 mM of 2-oxoglutarate, and 0.75 mM of a substrate, and a translation reaction liquid, which contained a synthesized enzyme protein, in a proportion of 40% and 60%, respectively. After incubation at 30° C. for 3 hours, 100% methanol in the same amount as the enzyme reaction liquid was added and sufficiently mixed, followed by being left to stand for 5 minutes on ice. This was subjected to centrifuge separation (20, 400 g, 20 minutes, 4° C.) and the supernatant was passed through Cosmonice Filter W (0.45 μm) (manufactured by Nacalai Tesque, Inc.) to obtain a sample for high-performance liquid chromatography. The analysis on the substrate and the product before and after the enzyme reaction was conducted by loading a column_Pro C18 (150×4.6 mm I.D.) (manufactured by YMC Co., Ltd.) on a high-performance liquid chromatography device_ELITE LaChrom L-2000 series (manufactured by Hitachi, Ltd.). Elution was conducted at a flow speed of 1 mL/min and a column temperature of 40° C. under solvent conditions of acetonitrile:water (1% acetic acid)=55:45 or 50:50 (BBC-OH), acetonitrile:water (1% acetic acid)=45:55 (Sulcotrione), acetonitrile:water (1% acetic acid)=45:55 (Mesotrione), acetonitrile:water (1% acetic acid)=55:45 or 50:50 (tefryltrone), and acetonitrile:water (1% acetic acid)=55:45 or 50:50 (Tembotrione), respectively, and the compound was detected at an ultraviolet wavelength of 286 nm.
as §4

Experiment [5] can be described thus: 4-HPPD inhibitor decomposition activity by HPLC, substrate tembotrione. The class given is biochemical. As to conditions: cell-free synthesized protein, not shown in the figures. The procedure: as §5
Experiment [6] is described as follows: 4-HPPD inhibitor decomposition activity by HPLC, substrate tefuryltrione. Type of experiment: biochemical. The note with it: cell-free synthesized protein; FeCl2, ascorbic acid, 2-oxoglutarate; 30° C. for 3 hours; HPLC.
Source text: as §1, §2, §3, §4

B1: OsHSL1 protein: rice-derived HSL protein, typically a protein having an amino acid sequence of SEQ ID NO: 4 (protein, listed as Oryza sativa)
chain: MADESWRTPAIVQELAAAGVEEPPSRYVLGEKDRSDELVAAELPEPIPVVDLSRLAGADEAAKLRAALQNWGFFLLTNHGVETSLMDDVLNLAREFFNQPIERKRKFSNLIDGKNFQVEGYGTDRVVTQDQILDWSDRLFLRVEPKEERNLAFWPDHPESFRDVLNEYASRTKRIRDDIVQAMSKLLGLDEDYFFDRLNKAPALARFNYYPPCPRPDLVFGVRPHSDGSLFTILLVDEDVGGLQIQRDGKWYNVQVTPNTLLINLGDTMEVLCNGIFRSPVHRVVTNAERERISLAMFYSVNDEKDIGPAAGLLDENRPARYRKVSVGEFRAGIIGKFSRRERYIDSLKI
For B1, the sulcotrione decomposition activity entry in experiment [1] is on record as “hardly observed; also recorded: only very weak decomposition activity”. Besides, the mesotrione decomposition activity entry in experiment [2] is “only very weak decomposition activity”. Moreover, the “BBC resistance (growth condition)” value in experiment [3] was “whitened”. For the same molecule, the BBC-OH decomposition activity result in experiment [4] was “hardly observed; also recorded: only very weak decomposition activity”. Further, the tembotrione decomposition activity result in experiment [5] is given as “only very weak decomposition activity”. The tefuryltrione decomposition activity result in experiment [6] is “lower than that of the HIS1 protein; also recorded: had the decomposition activity, which was less effective than that of the HIS1 protein”.
